{"source": "patent EP4793287A1", "about": "“TUMOR MICROENVIRONMENT SPECIFICALLY ACTIVATED CD47 ANTIBODY” (Affinity (Shanghai) Biopharmaceutical Co., Ltd., priority 2023, dated 2025)", "key": {"Raji cells": {"test_system": "Raji cells", "experiment": "ADCC assay with PBMCs, LDH detection", "format": "cell-based", "protocol": "Raji cells (cultured in RPMI-1640 (ATCC Modification, Gibco, Cat# A10491-01) + 10% FBS (BI, Cat# 04-001-1A) + 1× P/S) were expanded to the logarithmic phase. Cells were collected and pipetted to create a single-cell suspension. After centrifugation, the supernatant was discarded, and the cells were resuspended in culture medium, counted, and the cell density was adjusted to 2×10^5/ml. 50 µl/well of this suspension was added to a 96-well cell culture plate (Corning, Cat# 3599) and incubated overnight at 37°C in a 5% CO2 atmosphere. PBMCs (XF, Cat# XC11100W) were resuspended in 10% FBS-RPMI1640 medium. After centrifugation, the supernatant was discarded, and the cell density was adjusted to 8×10^6/ml. 50 µl/well of the antibody to be tested and 50 µl of the PBMC suspension (E:T ratio of […]) were added to the culture plate. The plate was placed in a CO2 incubator and incubated for 24 hours. The ADCC assay was performed using an LDH detection kit (Cytotoxicity Detection KitPLUS (LDH), Roche, Cat# 4744934001)."}, "human CD47 antigen": {"target": "human CD47 antigen (Homo sapiens, UniProt Q08722)", "sequence (Q08722 19-323)": "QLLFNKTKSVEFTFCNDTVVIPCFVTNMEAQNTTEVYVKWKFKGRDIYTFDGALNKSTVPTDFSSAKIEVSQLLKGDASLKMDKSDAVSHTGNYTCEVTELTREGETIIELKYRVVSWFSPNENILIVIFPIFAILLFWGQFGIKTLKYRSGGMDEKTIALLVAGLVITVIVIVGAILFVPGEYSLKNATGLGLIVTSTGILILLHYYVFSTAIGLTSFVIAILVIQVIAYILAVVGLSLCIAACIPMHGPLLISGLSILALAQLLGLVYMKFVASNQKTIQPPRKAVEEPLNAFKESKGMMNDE", "experiment": "Affinity measurement by SPR (BIAcore T200)", "details": "25 °C, 1:1 binding model", "protocol": "The binding affinity between the antigen and the antibody was measured using a BIAcore T200 instrument. The binding strength between the CD47 antigen and the antibody was determined using a CM5 chip (purchased from Cytiva, Cat# 29149603) via amine coupling. First, the CD47 antigen was immobilized onto the CM5 chip. According to the instructions of the Amine Coupling Kit (purchased from Cytiva, Cat# BR100050), using PBST as the running buffer, NHS and EDC were mixed and injected to activate the chip for approximately 420 seconds. The CD47 antigen was diluted to 10 µg/mL in 10 mM sodium acetate (pH 5.5) and injected to achieve an immobilization level of 141.2 RU. Finally, the remaining activated sites were blocked with 1 M ethanolamine (pH 8.5). Subsequently, the affinity of the antibody for the CD47 antigen was determined using the multi-cycle kinetics method. In each cycle, a single concentration of the antibody protein was injected, and the association and dissociation processes between the antibody and the antigen protein were recorded. Finally, the chip was regenerated with Glycine-HCl (pH 1.5). […] Data were analyzed according to a 1:1 binding model, and the kinetic parameters of antibody-antigen binding, including the association rate constant (Ka), dissociation rate constant (Kd), equilibrium dissociation constant (KD), and maximum binding signal (Rmax), were fitted."}, "[1]": {"test_system": "Human Burkitt's lymphoma RAJI cells", "experiment": "In vivo efficacy, subcutaneous RAJI transplanted tumor model", "set-up": "species or system NOD-SCID mice", "details": "for T/C ratio / TGI inhibition rate: after 31 days of treatment", "protocol": "Human Burkitt's lymphoma RAJI cells were subcutaneously transplanted into NOD-SCID mice to establish an in vivo model. RAJI cells were cultured according to standard culture conditions and were collected during the exponential growth phase for counting. Each mouse was inoculated on the right flank with 1×10^7 human Burkitt's lymphoma RAJI cells (suspended in 0.1 ml of basal medium). After inoculation, when the tumors grew to 80-114 mm^3 (7 days post-tumor implantation), the mice were randomly grouped based on body weight and tumor volume. The experimental groups were divided as follows:\nTreatment was started on the day of grouping. Mice were weighed, and tumor volumes were measured twice a week. Tumor volume was calculated using the formula: tumor volume = 1/2 × length × width × width (mm^3). The tumor growth inhibition rate TGI (%) was calculated as [1 - (Tt - T0) / (Ct - C0)] × 100%. The tumor inhibition rate T/C (%) was calculated as (Tt/T0) / (Ct/C0) × 100%. T0 represents the tumor volume of the test antibody group at the time of grouping; Tt represents the tumor volume of the test antibody group at each measurement; C0 represents the average tumor volume of the PBS group at the time of grouping; Ct represents the average tumor volume of the PBS group at each measurement."}}, "data": [{"molecule": "CD47 TMEAbody: CD47 TMEAbody conjugated with PEG of approximately 20K molecular weight (i.e., PEG20K) (conjugate) VH: QQQLEESGGGLVKPEGSLTLTCTASGFSFSSGYDMCWVRQAPGRGLEWIACIYTRSSGGTCYASWAKGRFTISKTSSTVDLRMTSLTAADTATYFCAGGRSSYRLNLWGQGALVTVSS VL: DVVMTQTPSPVEAAVGGTVTIKCQASQSISNELSWYQQKPGQPPKLLIYRASTLESGVSSRFKGSGSGTEFTLTISDLECADAATYYCQSTFYGDYGNAFGGGTEVVVK", "values": [{"measurement": "EC50", "setting": "Raji cells; ADCC, E:T ratio of 20:1, 24 hours", "result": 16.3, "unit": "nM"}, {"measurement": "ADCC activity", "setting": "Raji cells; after the CD47 TMEAbody was activated", "result": "restored"}, {"measurement": "ADCC activity", "setting": "Raji cells; not activated, compared to the 70H1 antibody", "result": "lost its ADCC activity"}, {"measurement": "Ka", "setting": "human CD47 antigen", "result": 24400, "unit": "M⁻¹ s⁻¹"}, {"measurement": "Tumor Volume", "setting": "[1]; 0.3 mg/kg, D0", "result": 94.56, "unit": "mm^3"}, {"measurement": "Tumor Volume", "setting": "[1]; 0.3 mg/kg, D3", "result": 123.83, "unit": "mm^3"}, {"measurement": "Tumor Volume", "setting": "[1]; 0.3 mg/kg, D7", "result": 147.44, "unit": "mm^3"}, {"measurement": "Tumor Volume", "setting": "[1]; 0.3 mg/kg, D10", "result": 232.04, "unit": "mm^3"}, {"measurement": "Tumor Volume", "setting": "[1]; 0.3 mg/kg, D14", "result": 358.82, "unit": "mm^3"}, {"measurement": "Tumor Volume", "setting": "[1]; 0.3 mg/kg, D17", "result": 511.34, "unit": "mm^3"}, {"measurement": "Tumor Volume", "setting": "[1]; 0.3 mg/kg, D21", "result": 849.95, "unit": "mm^3"}, {"measurement": "Tumor Volume", "setting": "[1]; 0.3 mg/kg, D24", "result": 1156.48, "unit": "mm^3"}, {"measurement": "Tumor Volume", "setting": "[1]; 0.3 mg/kg, D28", "result": 1887.63, "unit": "mm^3"}, {"measurement": "Tumor Volume", "setting": "[1]; 0.3 mg/kg, D31", "result": 2532.90, "unit": "mm^3"}, {"measurement": "T/C ratio", "setting": "[1]; 0.3 mg/kg", "result": 93.73, "unit": "%"}, {"measurement": "TGI inhibition rate", "setting": "[1]; 0.3 mg/kg", "result": 6.45, "unit": "%"}, {"measurement": "Tumor Volume", "setting": "[1]; 1 mg/kg, D0", "result": 94.25, "unit": "mm^3"}, {"measurement": "Tumor Volume", "setting": "[1]; 1 mg/kg, D3", "result": 100.17, "unit": "mm^3"}, {"measurement": "Tumor Volume", "setting": "[1]; 1 mg/kg, D7", "result": 116.36, "unit": "mm^3"}, {"measurement": "Tumor Volume", "setting": "[1]; 1 mg/kg, D10", "result": 162.08, "unit": "mm^3"}, {"measurement": "Tumor Volume", "setting": "[1]; 1 mg/kg, D14", "result": 214.12, "unit": "mm^3"}, {"measurement": "Tumor Volume", "setting": "[1]; 1 mg/kg, D17", "result": 307.27, "unit": "mm^3"}, {"measurement": "Tumor Volume", "setting": "[1]; 1 mg/kg, D21", "result": 384.91, "unit": "mm^3"}, {"measurement": "Tumor Volume", "setting": "[1]; 1 mg/kg, D24", "result": 485.51, "unit": "mm^3"}, {"measurement": "Tumor Volume", "setting": "[1]; 1 mg/kg, D28", "result": 679.76, "unit": "mm^3"}, {"measurement": "Tumor Volume", "setting": "[1]; 1 mg/kg, D31", "result": 890.40, "unit": "mm^3"}, {"measurement": "T/C ratio", "setting": "[1]; 1 mg/kg", "result": 33.06, "unit": "%"}, {"measurement": "TGI inhibition rate", "setting": "[1]; 1 mg/kg", "result": 69.46, "unit": "%"}, {"measurement": "Tumor Volume", "setting": "[1]; 3 mg/kg, D0", "result": 93.15, "unit": "mm^3"}, {"measurement": "Tumor Volume", "setting": "[1]; 3 mg/kg, D3", "result": 91.90, "unit": "mm^3"}, {"measurement": "Tumor Volume", "setting": "[1]; 3 mg/kg, D7", "result": 81.07, "unit": "mm^3"}, {"measurement": "Tumor Volume", "setting": "[1]; 3 mg/kg, D10", "result": 87.74, "unit": "mm^3"}, {"measurement": "Tumor Volume", "setting": "[1]; 3 mg/kg, D14", "result": 92.16, "unit": "mm^3"}, {"measurement": "Tumor Volume", "setting": "[1]; 3 mg/kg, D17", "result": 91.91, "unit": "mm^3"}, {"measurement": "Tumor Volume", "setting": "[1]; 3 mg/kg, D21", "result": 129.68, "unit": "mm^3"}, {"measurement": "Tumor Volume", "setting": "[1]; 3 mg/kg, D24", "result": 117.69, "unit": "mm^3"}, {"measurement": "Tumor Volume", "setting": "[1]; 3 mg/kg, D28", "result": 125.24, "unit": "mm^3"}, {"measurement": "Tumor Volume", "setting": "[1]; 3 mg/kg, D31", "result": 120.05, "unit": "mm^3"}, {"measurement": "T/C ratio", "setting": "[1]; 3 mg/kg", "result": 4.51, "unit": "%"}, {"measurement": "TGI inhibition rate", "setting": "[1]; 3 mg/kg", "result": 98.97, "unit": "%"}, {"measurement": "tumor growth inhibition", "setting": "[1]; 0.3-3 mg/kg", "result": "significant tumor growth inhibition"}, {"measurement": "changes in body weight", "setting": "[1]; during the treatment period", "result": "No significant changes in body weight"}]}]}
